How the values were obtained:
[1] = molecular target: WA20_H86K; assay: not stated; in solution; shown in Figure S1, whose legend was not shown
[2] = molecular target: recombinant Agrocybe cylindracea galectin (Agrocybe cylindracea); assay: as above

Row | stoichiometry N [1] | stoichiometry N [2] | Substance
1 | 2 |  | WA20_H86K
2 |  | 2 | recombinant Agrocybe cylindracea galectin (natural protein)

Source: publication PMC8775495
